Assay results from the supplement of paper PMC12764529.
± gives the half width of the 95% confidence interval.

Key:
[1] = folding stability dG unfold from chymotrypsin proteolysis; higher = more stable
Summary of the method: (§1)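 K50 was inferred by Bayesian fitting of sequencing counts obtained after protease digestion of designed mini-proteins. Unfolding free energy was derived by comparison with a sequence-predicted unfolded-state K50 and a shared folded-state K50, for each protease or both combined. The mini-proteins were under 80 residues, had no cysteine, were carried in a PA-tagged cDNA display construct, and were kept only if AlphaFold2 dimer inter-PAE exceeded 15.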

[2] = folding stability dG unfold from trypsin proteolysis; higher = more stable
Summary of the method: as §1

[3] = folding stability dG unfold (combined trypsin and chymotrypsin); higher = more stable
Summary of the method: as §1

Row | Sequence | folding stability dG unfold [1] [kcal/mol] | folding stability dG unfold [2] [kcal/mol] | folding stability dG unfold [3] [kcal/mol]
1 | SAGGSAGGMIIRITTKNGKTLEIKAKSLEEAKAAIAEKLGLSKENIKPEDITKVEIYSEEELKESAGGSAGG [r6_586_TrROS_Hall] | 3.28 ± 0.15 | 2.95 ± 0.17 | 3.12 ± 0.16
2 | SAGGSAGGMIKITITVPPGVSPEFVREKIAPLGVEVLSVEPLPDGTHRVTIEIPPEITKNPELLSAGGSAGG [r6_470_JUSTAS] | 1.18 ± 0.023 | 1.68 ± 0.051 | 1.42 ± 0.044
3 | SAGGSAGGMIREIEVKVSPEFPSVEEVVEELKAKGYEVKRIEEDPETDEVIVYVVKKVPEEEHHSAGGSAGG [r6_604_JUSTAS] | 1.04 ± 0.17 | 1.05 ± 0.068 | 1.08 ± 0.12
4 | SAGGSAGGMIVTTTFLPGNLKVVNVTTTYETTDPSGTTTSTTTTSTTIEYIPPVPVDINNPLLISAGGSAGG [r6_920_JUSTAS] | 1.24 ± 0.038 | 1.41 ± 0.071 | 1.41 ± 0.14
5 | SAGGSAGGMIYADNPEEFKKVVKELLKKHPKNKPVFAVLTGSNSKYVIYLSGDKLEKVLAFPVPSAGGSAGG [r6_288_TrMRF] | 1.62 ± 0.051 | 0.961 ± 0.028 | 1.38 ± 0.052
6 | SAGGSAGGMKATFHPGPGRFPLGDKEYEVDLIYVTVTLPNGVPRVFVLTPDEVEELLPDLELEGSAGGSAGG [r6_561_TrMRF] | 1.04 ± 0.071 | 0.338 ± 0.07 | 0.794 ± 0.098
7 | SAGGSAGGMKEGETRTITFWANVKPGDLEKIANHMMKFGWPIKKVDIKRHPENGMVRVSITIRKSAGGSAGG [r6_514_TrROS] | 2.56 ± 0.045 | 2.21 ± 0.025 | 2.43 ± 0.052
8 | SAGGSAGGMKEVIEAALKDGSKEFYAPGFSPDKVYDVKITVYPGEGKVEIEVEGKRFTVSPEDLSAGGSAGG [r6_749_TrMRF] | 0.765 ± 0.18 | 1.48 ± 0.14 | 1.11 ± 0.23
9 | SAGGSAGGMKITKIESVEPNPENGMVSLEMKIENGASILIHYNPDNGKVTIMVFKPNEIEPIELSAGGSAGG [r6_796_TrROS] | 1.91 ± 0.072 | 1.26 ± 0.092 | 1.76 ± 0.089
10 | SAGGSAGGMKITVEEDPATNRLTITIEVDGHTVTIVYDKDNPNKITVTVSPNMTKDEILKALKSSAGGSAGG [r6_195_TrROS_Hall] | 2.43 ± 0.034 | 1.67 ± 0.052 | 2.17 ± 0.095
11 | SAGGSAGGMKKYKMTITFKTPDGTPVKEKTIYFNSEEEAKKAAEEIKKKELEPDTPVTVSKEPDSAGGSAGG [r6_286_JUSTAS] | 1.13 ± 0.071 | 0.425 ± 0.05 | 0.898 ± 0.069
12 | SAGGSAGGMKLLKVVVERKDGSKRELEIPEELLVELGRPPTPEEIAKLLGIKPEDIVRVEIEDVSAGGSAGG [r6_166_TrMRF] | 4.87 ± 0.21 | 3.65 ± 0.15 | 4.74 ± 0.2
13 | SAGGSAGGMKTVEIEVTVKTPDGKEVKIKKARIEYDKETKTFHLYFENEETGEWYEVDEIKLKDSAGGSAGG [r6_329_TrROS_Hall] | 2.69 ± 0.18 | 1.96 ± 0.085 | 2.71 ± 0.2
14 | SAGGSAGGMKVVVKFTVRPRDPDTDEAVPAELVLEFDSLEEALAAAEELAALPEGTEIEIEVLTSAGGSAGG [r6_999_TrMRF] | 1.76 ± 0.031 | 2.2 ± 0.058 | 1.96 ± 0.088
15 | SAGGSAGGMKYTTTTETSVVEVRTDPKTGTTTRLERVTVTTVDSSGNVLSTTETLEERVDPVPASAGGSAGG [r6_181_JUSTAS] | 2.163 ± 0.0081 | 2.1 ± 0.059 | 2.15 ± 0.039
16 | SAGGSAGGMKYVVTVELPETGTTRTLTIPDNYTGEENVKKAVEEEAKKLGYSISKIEITKINDKSAGGSAGG [r6_718_JUSTAS] | 0.654 ± 0.14 | 0.367 ± 0.086 | 0.536 ± 0.12

Row | Sequence | folding stability dG unfold [1] [kcal/mol] | folding stability dG unfold [2] [kcal/mol] | folding stability dG unfold [3] [kcal/mol]
17 | SAGGSAGGMLEIEFEKPLPNGETLKIKVFFDKDKPEALVEIENPSTNEKKFYNFTSIDEVIEKESAGGSAGG [r6_464_TrMRF] | 1.7 ± 0.2 | 1.03 ± 0.048 | 1.49 ± 0.24
18 | SAGGSAGGMNIQILKVDPDNGTITLAIPVDNWIVAISIKIRPDPNNPGMFKLDIDIHWFPADDISAGGSAGG [r6_372_TrROS] | 4.44 ± 0.11 | 3.77 ± 0.14 | 4.28 ± 0.091
19 | SAGGSAGGMNPTVTPVEVDVGDKPLTVFLFGDGTALVLFPDGGLAGAPVGTPDDRPVNLAIIGPSAGGSAGG [r6_239_TrMRF] | 0.955 ± 0.053 | 0.887 ± 0.037 | 0.927 ± 0.073
20 | SAGGSAGGMPLLALSYPVLKDGKLYRVLFLYSPDGTFLGPFYVSADLTEDIPPDTVVLVHPDALSAGGSAGG [r6_33_TrMRF] | 3.523 ± 0.03 | 3.24 ± 0.09 | 3.55 ± 0.1
21 | SAGGSAGGMPPVSLPETPVTITDPATGKPRLVTVLAAAPDGTLTVRFPDGSEVTVAGEPLLELESAGGSAGG [r6_435_JUSTAS] | 1.05 ± 0.019 | 0.446 ± 0.042 | 0.878 ± 0.051
22 | SAGGSAGGMPVEIEILTPDNLLPTFTIPDPEEAEKIKSVEVFGDRFIKITLGDKEIVIEVYPDNSAGGSAGG [r6_206_TrMRF] | 0.559 ± 0.063 | 1.48 ± 0.061 | 1.01 ± 0.12
23 | SAGGSAGGMSPDAKPIGEKTDESPGPEKVTTTTLKSPDPSLTYTVTTTTVGSTTTTTTTAVPVLSAGGSAGG [r6_923_JUSTAS] | 0.134 ± 0.4 | 0.439 ± 0.051 | 0.261 ± 0.1
24 | SAGGSAGGMTFTFPPGARVRIAIYNKNGELIEEREIDEPGAKITIEKDEETGEWRIVSIELLEPSAGGSAGG [r6_523_TrROS_Hall] | 3.76 ± 0.05 | 3.12 ± 0.084 | 3.45 ± 0.18
25 | SAGGSAGGMTIEEKAEELEEELKKKYPDMEVKVEVDPEKGIVKITITDPKNPGKTTELTFPVEESAGGSAGG [r6_478_JUSTAS] | 2.23 ± 0.19 | 4.2 ± 0.45 | 3.36 ± 0.15
26 | SAGGSAGGMTIEVTFPDGTKLTITLENDGPDTLLATAEVEAPRAGGPSIPKEVAAKLAEELLASSAGGSAGG [r6_234_TrMRF] | 1.62 ± 0.081 | 1.19 ± 0.061 | 1.36 ± 0.12
27 | SAGGSAGGMTKDDIIEKLKKEYPDKDVKVLKVEESVLPSGKILAKVTLEFPEEGKTFEKTFEVESAGGSAGG [r6_572_JUSTAS] | 2.69 ± 0.13 | 2.91 ± 0.3 | 2.71 ± 0.2
28 | SAGGSAGGMTLEIEVNGKKIKIEVIKDKETNRYFVRITVDGKEVLIEADSKEDALKAIKELLKKSAGGSAGG [r6_715_TrROS_Hall] | 4.42 ± 0.076 | 2.93 ± 0.059 | 4.12 ± 0.077
29 | SAGGSAGGMTLTVDLPLPDGGTVRLEVEPLPDGTVRVRLTYPDGRKAEFETSAPVEVLLERAAGSAGGSAGG [r6_808_TrMRF] | 3.05 ± 0.054 | 1.61 ± 0.026 | 2.69 ± 0.086
30 | SAGGSAGGMTPEEERRKKESPVPPVNKVTVKIPVPSSVSEEVAKEIAEKLEKESGAKKVEVILPSAGGSAGG [r6_517_JUSTAS] | 1.34 ± 0.098 | 0.257 ± 0.042 | 1 ± 0.091
31 | SAGGSAGGMTPEELAEQKAEELREKLLAEGRPVSLKITKVTYEVDPKTGTVKVTSDIEIVYGPGSAGGSAGG [r6_454_JUSTAS] | 0.434 ± 0.29 | 1.04 ± 0.08 | 0.986 ± 0.24
